Test results reported in patent publication US20160289285A1 (Molecular Partners, published 2016).
One block for each binder: values may come before it.

Biological target: T1, human serum albumin (human, UniProt P02768 25-609)
T1 construct: For SEC-MALS purified from CSL Behring 20% solution; also called HSA; SA (human)
Experiment: ELISA, immobilised human serum albumin
Description: 100 μl or 50 μl of 20 nM target (VEGF-A, HGF, or serum albumin) in PBS per well were immobilized in a Maxisorp plate (Nunc, Denmark) overnight at 4° C. After washing 5 times with 300 μl PBST (PBS supplemented with 0.1% Tween 20), the wells were blocked with 300 μl PBST-C (PBST supplemented with 0.25% casein) for 2 h at room temperature with shaking at 450 rpm on a Titramax 1000 shaker (Heidolph, Germany). […] After washing 5 times as described above, bound anti-designed ankyrin repeat domain antibody was detected using 100 μl or 50 μl/well goat anti-rabbit IgG-HRP conjugate in PBST-C for 1 h at room temperature with shaking at 450 rpm. After washing 5 times as described above, the ELISA was then developed using 100 μl BM soluble blue POD substrate (Roche, Switzerland), diluted 1:4 in water. The reaction was stopped after 5 min using 100 μl 1 M H₂SO₄. The OD (OD 450 nm-OD 620 nm) was then recorded.
Cynomolgus monkey VEGF-A is identical to human VEGF-A and was thus not tested separately.

T1 sequence (P02768 25-609 limits assumed): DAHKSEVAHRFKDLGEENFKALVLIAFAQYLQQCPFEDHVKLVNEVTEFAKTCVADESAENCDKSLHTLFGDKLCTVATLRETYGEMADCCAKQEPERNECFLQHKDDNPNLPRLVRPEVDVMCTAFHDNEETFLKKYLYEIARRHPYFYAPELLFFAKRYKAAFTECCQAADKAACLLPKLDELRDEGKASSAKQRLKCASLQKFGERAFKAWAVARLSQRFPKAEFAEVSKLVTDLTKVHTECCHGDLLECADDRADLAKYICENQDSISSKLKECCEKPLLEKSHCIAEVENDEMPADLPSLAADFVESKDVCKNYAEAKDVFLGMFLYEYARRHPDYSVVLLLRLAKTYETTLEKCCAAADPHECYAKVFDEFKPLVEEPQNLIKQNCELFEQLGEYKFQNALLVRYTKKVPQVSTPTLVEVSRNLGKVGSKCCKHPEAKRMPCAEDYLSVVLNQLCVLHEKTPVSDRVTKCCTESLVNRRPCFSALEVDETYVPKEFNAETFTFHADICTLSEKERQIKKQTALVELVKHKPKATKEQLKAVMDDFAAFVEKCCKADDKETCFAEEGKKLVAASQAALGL

EC50: 0.225 nM
B1: Protein #60 (designed binder)
chain: MRGSHHHHHHGSDLGKKLLEAARAGQDDEVRELLKAGADVNAKDYFSHTPLHLAARNGHLKIVEVLLKAGADVNAKDFAGKTPLHLAANEGHLEIVEVLLKAGADVNAQDIFGKTPADIAADAGHEDIAEVLQKAAGSPTPTPTTPTPTPTTPTPTPTGSDLGKKLLEAARAGQDDEVRILLKAGADVNAKDRYGDTPLHLAADIGHLEIVEVLLKAGADVNAEDYFGNTPLHLAASYGHLEIVEVLLKAGADVNAKDDYGNTPLHLAANTGHLEIVEVLLKAGADVNAQDKSGKTPADLAADAGHEDIAEVLQKAA

EC50: 0.322 nM
B2: Protein #61 (designed binder)
chain: MRGSHHHHHHGSDLGKKLLEAARAGQDDEVRELLKAGADVNAKDYFSHTPLHLAARNGHLKIVEVLLKAGADVNAKDFAGKTPLHLAANEGHLEIVEVLLKAGADVNAQDIFGKTPADIAADAGHEDIAEVLQKAAGSPTPTPTTPTPTPTTPTPTPTGSDLDKKLLEAARAGQDDEVRILLKAGADVNAKDSTGWTPLHLAAPWGHPEIVEVLLKAGADVNAKDFQGWTPLHLAAAAGHLEIVEVLLKAGADVNAQDKSGKTPADLAADAGHEDIAEVLQKAA
